# Measurements reported in US20240287489A1, “CHITINOLYTIC ENZYME-BASED PLANT PROTECTION AGENTS” (GLOBACHEM NV, priority 2021, published 2024).
# B1: Chitinase 3: chitinolytic enzyme from P. orarium, SEQ ID NO: 3, recombinant with PelB signal peptide and 6×His tag (protein, listed as Photobacterium orarium)
# chain: MALAAPGTPQLAWMETDYAIVEVDQAATAYKDLVTVKNAADVPVAWQRYSGETADHWKVKLNGNVAFEESINPASSGAGSTTLSITQGGQYALTVELCSGSGAEEACSSSPATNIVVADTDGSHLDPLPMNVDPNNGTYSTPADTVVGAYFVEWGVFGRKFTVDKIPAQNLTHILYGFIPVCGPNESLGEIESGNSLAALNRACAGTPDFEVAIHDPWAAVQMPQPQSGHTYSTPYKGNYGQLMALKQRYPDLKVIPSIGGWTLSDPFFSFTDKSKRDVFVASVKKFLQTWKFFDGVDIDWEFPGGKGANTTLGDPVNDGPAYVALMRELRTMLDGLEAETGRQFELTSAIGVGYDKIDVVNYAEASQYMDYIFNMSYDFYGGWSNVTGHQTALNCGSHLTADQCNGTGVDENGEPRQGPAYTTAHGVERLLAQGVPANKLVVGAAMYGRGWTGVTQASMTDPSNPMTGVGNGAVAGSWEAGVIDYKDVVTRYENKAGVVLGYDEQAEAPWAYDPSNGDLVTYDSPRSIMAKGQYVRDLGLAGLFAWEIDADNGDILNAMQESLAGAPAGNRAPVARAGSDQQVNTAATVTLNGSSSTDSDGQIAGYQWVQTSGPALTLNGANTASATISVPDVTVDTQYVFTLTVTDNEGATATDSITVTAKAPGAQNTAPVASLTGPGTANADDVITLDASQSTDADGDTLTYDWTVPAGVNAVINGSSLSFTADSYTTDTALSFSVSVSDGTASDAASLTVTIAKDESGTGGEGDFPAYVEGTAYQAGDQVSNGGVNFECKPYPYSGWCSGAAWAYEPGVGVYWQDAWTQLIE
# modifications: PelB signal peptide; 6xHis tag; Chitinase 3
# B2: Chitinase 4: chitinolytic enzyme from P. orarium, SEQ ID NO: 4, recombinant with PelB signal peptide and 6×His tag (protein, listed as Photobacterium orarium)
# chain: MAQAAANCRPDGLYQTPGVTVPYCTVYDQDGREKMGVDHPRRVIGYFTSWRSGNDPQSSYLVNDIPWDSLTHINYAFVSIGSDGKVNIGNVNNPDNPAVGKEWPGVEIDPALGFKGHFGALATAKAQHGVKTLISIGGWAETGGHFDDNGNRVADGGFYTMTTNADGSINHQGIQTFADSAVAMMRQYKFDGLDIDYEYPTSMQGAGNPDDFAYSDAMRPHLMKSYHELMKVLREKLDQASAQDGHHYMLTIAAPSSGYLLRGMETMSVTKYLDYVNIMSYDLHGAWNDYVGHNASLFDSGLDAELEAGNVYGTAQYKKTGYLNTDWAYHYFRGSMPAGRINIGVPYYTRGWQGVTGGTNGLWGKAALPNQSDCPTGTGAGTSNCGYGAIGIDNMWHDKDANGNEMGAGSNPMWHAMNLANGVYGSYTAAYGLDPVNDPQDALTGTYTRHYDSVSVAPWLWNADKKVFLSTEDKESINTKADYVIEQGIGGIMFWELAGDYSCYNLDANGNRTTVDPTENACKTGNGEYHMGDTMTKAIHNKFATATPYGNTLAEGAIPTEAVNIDVSVTGFKVGDQNYPLNPTMTLTNKTGQTLPGGTEFQFDIPTSTPDNMSDQSGANLQVISSGHTRGDNIGGLDGNFHRVAFTLPSWKQLGNNESFELTLNYFLPISGPANYSVRVNNADYALAFEQPDLPIADLSNGGGDNGGGDGNNGDCVTTGVNTYPNWPQTDWAGNPSHAGTGDKIIYNGAVYQAKWWTNSVPGSDGSWDTVCTVQIE
# modifications: PelB signal peptide; 6xHis tag; Chitinase 4
# B3: Chitinase 2: chitinolytic enzyme from P. orarium, SEQ ID NO: 2, recombinant with PelB signal peptide and 6×His tag (protein, listed as Photobacterium orarium)
# chain: MATANYNPDGVYSAGEQVIYQGATYQALRSTENEAPDTYLGDAWQQVNAQNVTSSTTPTYPAYQSSAVYVGGDHVSYNSQIYKAKWWTQGEAPDATPGTGVWEWVSADNNPDPGPGPDPDPTPEPTPANGIIGQNPDGSYIMSKTYLDAREAELTSSPEFAAVLASISTRDNAVVEAVVPGLSTNPDNVKRVEALISEQKWDALFPERNVVYTYSNFLKAVAKFKGFCATYTDERAAQSDAICAKSLAVMFAHFTQETGAHNPHSPYEEWRQGLFFVREAGCSEEASSCGYNSECAASNWQTEQWPCGTNPDGSYVKYFGRGAKQLSYHYNYGPFSDFIFNDVNVLLQDPDRVADSWLNLASAVFFFVYPQPPKPSMLHVIDGTWQPTAADIAEKRVPGFGVTTMIINGGIECTLDTEKPQSVNRIKYYRGHAAALGVAIPADEQLGCAGMKAFKKTGDSTFGLYWENDWSYYPDNPGGSSFACRIESGYQTAHTTLKKGDYAKCIQKYYGVTIE
# modifications: PelB signal peptide; 6xHis tag; Chitinase 2
# What was measured:
# Assay type in all cases: biochemical
# [1] = Temperature, pH and NaCl optima and temperature stability of recombinant chitinases (reducing end assay); settings: for Optimum pH / Optimum salinity / Optimum temperature: chitin powder; for Optimum pH: 30° C., pH 4-11; for Optimum salinity: 0-20% w/v NaCl; for Optimum temperature: pH 8, range 10-60° C.
# Experimental: All enzymes were first characterized regarding their temperature and pH-optima as well as the optimum NaCl content as the enzymes were isolated from a sea-water microorganism. As the future intention is to integrate these novel enzymes in a degradation processes of natural chitin, all parameters were determined using chitin powder as a substrate instead of pre-treated analogs such as colloidal chitin, glycol chitin or artificial fluorogenic substrates. […] (FIG. 5A). Next, enzyme temperature stability was investigated (FIG. 51). […] Enzyme C1 retained a 50% residual activity after 240 min incubation at 60° C., while the activity of the other chitinases dropped below 50% after 15 min and remained on that level.
# Given the marine origin of the P. orarium strain, the effect of salt was also evaluated, testing the addition of NaCl to the standard buffer. […] Increasing NaCl amounts up to 20% (w/v) reduced enzyme activity substantially to 10% for C2, 4 and 5, with C1 and C3 showing highest tolerance (65% activity).
# For the determination of enzymatic activity of recombinant chitinases, a reducing end assay was carried out [Svein et al., Carbohydr Polym, 2004. 56(1): p. 35-39.]. Fractions containing chitinases were incubated with 5% (w/v) chitin powder extracted from shrimp shells (˜400.000 g/mol; Carl Roth) in MAT buffer for 2 h in an overhead shaker at ambient temperature (standard conditions). Samples were centrifuged at 13000×g for 2 min and 40 μl of the supernatant was mixed with 40 μl 0.5 M NaOH and 40 μL of a reagent containing 1.5 mg/ml 3-Methyl-2-benzothiazolinonhydrazon and 0.75 mg/ml Dithiothreitol. Samples were incubated at 80° C. for 15 min and then thoroughly mixed with 80 μl of 0.5% (w/v) FeNH4(SO4)2)×12H2O, 0.5% (w/v) sulfamic acid and 0.25 M HCl. After cooling down to room temperature, 100 μl of the samples were measured at 620 nm. A calibration curve of N-acetyl-glucosamine was constructed freshly for each measuring cycle. One unit [U] was defined as the amount of enzyme required to release 1 μmol of reducing sugars per hour.
# (§1) Enzyme samples were incubated at different temperature (10-60° C., 10° C. increment) and pH (4-11, increment 1) using different buffer systems (Acetate, Tris-HCl, MES, total molar concentration 100 mM), as well as NaCl content (0, 1. 2.5, 5, 10 and 20% w/v) to determine optimum reaction conditions. All experiments were carried out at 1.0 ml scale using 2 μM of the respective enzymes and a 5% (wv) suspension of chitin powder extracted from shrimp shells (˜400.000 g/mol; Carl, Roth) in 100 mM MAT buffer. For the determination of the substrate specificity, chitin powder (5% w/v), glycol chitin (10% v/v), colloidal chitin (5% w/v), chitosan [DA 15-25%, medium molecular weight, Sigma-Aldrich] (5% w/v) and microcrystalline cellulose powder (Sigma Aldrich) (5% w/v) were investigated, respectively. The effect of several potential co-factors on activity was elucidated at a concentration of 1 mM. Additionally, the effect of detergents [SDS 0.5% (w/v), Tween-20 and Triton X-100 both at 0.5% (v/v)] and chemicals (Imidazole 100 mM, EDTA 1 mM) on enzymatic activity was assessed. Samples were incubated in a thermomixer for 16 h at 900 rpm. After incubation, samples were analyzed using the enzyme assay. Thermostability was assessed after incubation of recombinant chitinases at 60° C. for different durations followed by the quantification of residual enzyme activity under standard assay conditions.
# [2] = Substrate specificity, reducing end assay; settings: in % activity of chitin powder; 16 h at optimum conditions, 50 mg/ml substrate
# Experimental: (§2) Different chitinous substrates were tested to assess the substrate affinity of the novel chitinases relative to untreated chitin powder. […] As expected, the conversion of colloidal chitin is more efficient compared to chitin powder as it provides an overall smaller particle size and thereby larger surface area. Chitosan powder (degree of acetylation: 15%) was also degraded efficiently and high chitosanase activity was observed especially for C1, C3, C4 and C5. Merely basal activity was detected when cellulose was utilized as a substrate for all enzymes.
# as §1
# [3] = Substrate specificity, reducing end assay; settings: in % activity of chitin powder; 16 h at optimum conditions, 50 mg/ml substrate; remark: listed apart in the source
# Experimental: as §2
# The preparation of colloidal chitin was similar to the method described by Murthy and Bleakley with some minor differences [Murthy et al., Microbiol., 2012. 10(2): p. 1-5.]. Chitin powder (Carl Roth) was dissolved in concentrated hydrochloric acid (HCl) (5 g in 100 mL) and stirred at 4° C. for 24 h, after which the mixture was centrifuged at 4000×g for 15 min at 4° C. The precipitate was washed to neutral pH with distilled water and stored at 4° C.
# as §1
# [4] = Enzyme kinetics on chitin powder (Michaelis-Menten non-linear fit); settings: 2 μM enzyme, 0-150 mg/ml chitin powder
# Experimental: Enzyme kinetics were determined using chitin powder as a substrate and the optimum enzyme to substrate ratio could be determined as well as Vmax and Km values. The concentrations of chitin powder varied
# from 0 mg/ml up to 150 mg/ml while amount of enzyme was kept constant (2 μM). The initial velocities (V0) versus substrate concentration ([S]) were plotted as Lineweaver-Burk and Michaelis-Menten curves using GraphPad software (FIG. 7).
# Maximum reaction velocities (Vmax) and Michaelis-Menten constants (Km) were determined using a non-linear fit Michaelis-Menten model (Table 4.6). Thereby, optimum enzyme-substrate ratios were determined that would allow a maximization of substrate conversion rates. Furthermore, the Km indicated the reciprocal enzyme-substrate affinity for C1-C5. Higher Km values reflect an overall lower affinity and thus reduced conversion efficiencies. […] In comparison, higher Km values for C2 and C5 reflected an overall lower affinity to insoluble chitin.
# as §1
molecule,measurement,setting,value
B1,Optimum pH,[1],8
same,Optimum salinity,"[1]; pH 8, 30° C.",5 % NaCl
same,Optimum temperature,[1],30 °C
same,"Relative activity, Cellulose",[2],9.4 ± 0.9%
same,"Relative activity, Chitin",[2],100%
same,"Relative activity, Chitosan",[2],113.4 ± 9.0%
same,"Relative activity, Colloidal chitin",[3],133.4 ± 6.5%
same,Km (enzyme-substrate affinity),[4],15.2 mg/mL
same,Vmax (maximum reaction velocity),[4],206.2 U/ml
B2,Optimum pH,[1],8
same,Optimum salinity,"[1]; pH 8, 30° C.",1 % NaCl
same,Optimum temperature,[1],30 °C
same,"Relative activity, Cellulose",[2],10.4 ± 0.9%
same,"Relative activity, Chitin",[2],100%
same,"Relative activity, Chitosan",[2],141.3 ± 5.5%
same,"Relative activity, Colloidal chitin",[3],117.7 ± 6.3%
same,Km (enzyme-substrate affinity),[4],22.2 mg/mL
same,Vmax (maximum reaction velocity),[4],218.6 U/ml
B3,enzyme activity (relative),"[1]; 20% (w/v) NaCl, pH 8, 30° C.",10%
same,Optimum pH,[1]; listed as C2,10
same,Optimum salinity,"[1]; pH 8, 30° C.",1 % NaCl
same,"Relative activity, Cellulose",[2],10.0 ± 1.1%
same,"Relative activity, Chitin",[2],100%
same,"Relative activity, Chitosan",[2],71.4 ± 6.7%
same,"Relative activity, Colloidal chitin",[3],191.4 ± 4.7%
same,Km (enzyme-substrate affinity),[4],61.8 mg/mL
same,Vmax (maximum reaction velocity),[4],175.4 U/ml
